Laboratory results: IntAct's records for PubMed 16415179

B1: Transcriptional repressor p66-alpha (Homo sapiens), Q86YP4 (parent)
chain: MTEEACRTRSQKRALERDPTEDDVESKKIKMERGLLASDLNTDGDMRVTPEPGAGPTQGLLRATEATAMAMGRGEGLVGDGPVDMRTSHSDMKSERRPPSPDVIVLSDNEQPSSPRVNGLTTVALKETSTEALMKSSPEERERMIKQLKEELRLEEAKLVLLKKLRQSQIQKEATAQKPTGSVGSTVTTPPPLVRGTQNIPAGKPSLQTSSARMPGSVIPPPLVRGGQQASSKLGPQASSQVVMPPLVRGAQQIHSIRQHSSTGPPPLLLAPRASVPSVQIQGQRIIQQGLIRVANVPNTSLLVNIPQPTPASLKGTTATSAQANSTPTSVASVVTSAESPASRQAAAKLALRKQLEKTLLEIPPPKPPAPEMNFLPSAANNEFIYLVGLEEVVQNLLETQGRMSAATVLSREPYMCAQCKTDFTCRWREEKSGAIMCENCMTTNQKKALKVEHTSRLKAAFVKALQQEQEIEQRLLQQGTAPAQAKAEPTAAPHPVLKQVIKPRRKLAFRSGEARDWSNGAVLQASSQLSRGSATTPRGVLHTFSPSPKLQNSASATALVSRTGRHSERTVSAGKGSATSNWKKTPLSTGGTLAFVSPSLAVHKSSSAVDRQREYLLDMIPPRSIPQSATWK

Variants of: B1
Settings: with mbd2_human MBD2, Q9UBB5
Sequence of mbd2_human MBD2, Q9UBB5 (Q9UBB5 whole entry): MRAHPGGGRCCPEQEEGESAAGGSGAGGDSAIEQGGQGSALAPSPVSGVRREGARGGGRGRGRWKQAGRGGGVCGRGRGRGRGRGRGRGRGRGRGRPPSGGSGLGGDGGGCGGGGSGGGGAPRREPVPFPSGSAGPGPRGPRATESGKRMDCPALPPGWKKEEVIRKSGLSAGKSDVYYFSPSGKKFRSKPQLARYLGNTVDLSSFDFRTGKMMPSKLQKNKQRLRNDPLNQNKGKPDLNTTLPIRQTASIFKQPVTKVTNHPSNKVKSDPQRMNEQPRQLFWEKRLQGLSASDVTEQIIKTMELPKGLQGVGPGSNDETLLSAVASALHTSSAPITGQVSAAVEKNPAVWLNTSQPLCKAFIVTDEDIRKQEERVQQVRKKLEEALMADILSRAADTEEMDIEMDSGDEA

| Variant | effect of a mutation on the interaction |
| --- | --- |
| K149R | decreasing interaction |
